This passage reports max. signal (% of 22G2) and MFI results from patent US20230265187A1.

The target in experiment [1] is human TIGIT on Jurkat cells (TIGIT/NFAT reporter Jurkat cells, BPS Bioscience #60538; Promega TIGIT Effector Cells) (human) (UniProt Q495A1). The experiment can be described thus: cell-based or functional assay.
Experiment [2] shares this target. The experiment can be described thus: flow cytometry, TIGIT/NFAT Jurkat cells, 10 ug/ml. For orientation: A flow cytometer gives signals particle by particle.

human TIGIT on Jurkat cells (TIGIT/NFAT reporter Jurkat cells, BPS Bioscience #60538; Promega TIGIT Effector Cells) (human), sequence (Q495A1 22-244): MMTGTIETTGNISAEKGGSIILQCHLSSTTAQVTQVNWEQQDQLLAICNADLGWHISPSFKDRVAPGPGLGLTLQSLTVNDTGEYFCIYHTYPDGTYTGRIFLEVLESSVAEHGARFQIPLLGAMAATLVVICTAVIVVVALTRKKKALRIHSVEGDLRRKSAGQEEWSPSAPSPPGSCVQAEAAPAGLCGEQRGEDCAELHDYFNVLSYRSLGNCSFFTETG

B1: 43586p1.2.F6 (scFv, V domains shown)
VH: EVQLLESGEGLVQPGGSLRLSCAASGFTFTSYLMSWVRQAPGKGLEWVSTITWDGDRTYYADSVKGRFTISRDNSKNTLYLQMNSLRVGDTAVYYCAKHWTVFQYGMDVWGQGTTVTVSS
VL: QSVLTQPASASGTPGQRVTISCSGTISNIETKYVSWYQQLPGTAPKLLIYGNHQRPSGVPDRFSGSKSGTSASLAISGLQSEDEADYYCASWENDLKSWVFGGGTKLTVL
For B1, the max. signal (% of 22G2) in experiment [1] is 116 % of 22G2. This molecule yielded an MFI in experiment [2] of 10700 MFI.
